From paper PMC9287412, “Cryo-EM structure of the human Kv3.1 channel reveals gating control by the cytoplasmic T1 domain” (Nature Communications, 2022)

Target: the molecule itself
Test: cryo-EM structure; purified Kv3.1a, 20 uM, in 20 mM HEPES pH 7.5, 100 mM NaCl, 50 mM KCl, 0.04% digitonin; apo, with 1 mM EDTA or with 400 uM ZnCl2; subunits within the tetrameric channel

B1: human Kv3.1a channel (full-length human Kv3.1, isoform A) (natural protein, UniProt P48547 1-511, looked up)
chain: MGQGDESERIVINVGGTRHQTYRSTLRTLPGTRLAWLAEPDAHSHFDYDPRADEFFFDRHPGVFAHILNYYRTGKLHCPADVCGPLYEEELAFWGIDETDVEPCCWMTYRQHRDAEEALDSFGGAPLDNSADDADADGPGDSGDGEDELEMTKRLALSDSPDGRPGGFWRRWQPRIWALFEDPYSSRYARYVAFASLFFILVSITTFCLETHERFNPIVNKTEIENVRNGTQVRYYREAETEAFLTYIEGVCVVWFTFEFLMRVIFCPNKVEFIKNSLNIIDFVAILPFYLEVGLSGLSSKAAKDVLGFLRVVRFVRILRIFKLTRHFVGLRVLGHTLRASTNEFLLLIIFLALGVLIFATMIYYAERIGAQPNDPSASEHTHFKNIPIGFWWAVVTMTTLGYGDMYPQTWSGMLVGALCALAGVLTIAMPVPVIVNNFGMYYSLAMAKQKLPKKKKKHIPRPPQLGSPNYCKSVVNSPHHSTQSDTCPLAQEEILEINRAGRKPLRGMSI
notes: Voltage-gated potassium channel Kv3.1, human, shorter splice variant Kv3.1a (isoform A, α-isoform), full length, cloned from the mammalian gene collection; Homotetramer in the cryo-EM structures; the longer Kv3.1b was not used; also called shorter α-isoform of Kv3.1; KCNC1 gene product; not shown: Strep-II, C-terminal, cleaved; His10, C-terminal, cleaved; GFP, C-terminal, cleaved
stoichiometry N: 4
